Key:
[1] = biological target: T1, mouse GLP-1 receptor (Mus musculus, UniProt O35659); assay: cAMP functional assay (HTRF), agonist mode, in βTC6 cells; assay type: cell-based; details: peptides dissolved at 10 mM in PBS, 10 minutes at room temperature
T1 construct: cells that endogenously express the mouse GLP-1 receptor; endogenous in cells; host or cells: βTC6 cells (mouse)
T1 sequence (O35659 22-463): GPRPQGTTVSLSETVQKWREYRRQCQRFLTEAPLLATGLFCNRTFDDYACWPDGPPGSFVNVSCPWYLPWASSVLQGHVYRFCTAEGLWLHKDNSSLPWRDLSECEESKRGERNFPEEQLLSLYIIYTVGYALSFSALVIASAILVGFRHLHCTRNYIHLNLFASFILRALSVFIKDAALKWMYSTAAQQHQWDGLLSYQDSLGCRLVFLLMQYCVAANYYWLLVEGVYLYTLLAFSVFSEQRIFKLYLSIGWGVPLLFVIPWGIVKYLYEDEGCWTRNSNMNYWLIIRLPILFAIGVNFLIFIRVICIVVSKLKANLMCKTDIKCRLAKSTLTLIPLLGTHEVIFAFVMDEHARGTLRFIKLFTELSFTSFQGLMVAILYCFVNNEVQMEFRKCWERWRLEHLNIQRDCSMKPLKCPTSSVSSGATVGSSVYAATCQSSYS
Procedure: The agonistic and antagonistic effects of each of the four peptides on the receptor GLP-1 was tested in βTC6 cells, which are cells that endogenously express the mouse GLP-1 receptor, in a cAMP functional assay. […] Following the incubation period, the resulting intracellular level of cAMP was measured by homogenous time resolved fluorescence (HTRF).

[2] = biological target: T1, mouse GLP-1 receptor; assay: cAMP functional assay (HTRF), antagonist mode, βTC6 cells stimulated with 0.3 nM GLP-1 (7-37); assay type: cell-based; details: 10 minutes at room temperature
Procedure: The agonistic and antagonistic effects of each of the four peptides on the receptor GLP-1 was tested in βTC6 cells, which are cells that endogenously express the mouse GLP-1 receptor, in a cAMP functional assay.
Following the incubation period, the resulting intracellular level of cAMP was measured by HTRF.

Substance: pegylated exendin(9-39): pegylated form of exendin(9-39), tested as comparator peptide
- agonistic activity on GLP-1 receptor (intracellular cAMP) [1]: None of the four peptides exhibited agonistic activity
- antagonistic activity on GLP-1 receptor, overall (in words) [2]: did not exhibit significant antagonistic activity
